For orientation: Kd means the concentration at which binding is half-saturated. Low readings indicate a tighter complex, high ones a looser complex. For orientation: stoichiometry N means the number of molecules, sites or subunits per partner or assembly.

Drawing on article PMC3940207 (Molecular cell, 2014), this text covers Kd and stoichiometry N for 3 molecules.

In assay [1] the target is single chain H2B_(36-130) and H2A.Z_(22-118) chimera. The assay can be described thus: ITC.
The target is the same in assay [2]. The assay can be described thus: AUC.
For assay [3], the target named is T1, Swr1_(504-650) (S. cerevisiae, UniProt Q05471 505-651).
T1 sequence (looked up): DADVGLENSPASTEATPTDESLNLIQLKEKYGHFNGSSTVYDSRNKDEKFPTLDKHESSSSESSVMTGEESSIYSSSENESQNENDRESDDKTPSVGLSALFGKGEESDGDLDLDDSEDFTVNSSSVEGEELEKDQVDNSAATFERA
The assay can be described thus: ITC. In general terms: Isothermal titration calorimetry measures the heat released or taken up as one component is titrated into another.

For the molecule “Swr1_(504-650) (from UniProt Q05471 505-651) (domain or fragment)”, the Kd in assay [1] turned out to be 7 nM.
Take “Swr1_(589-650) (from UniProt Q05471 590-651) (domain or fragment)”: the stoichiometry N in assay [2] turned out to be 1.

B1: scH2B-H2A (other)
chain: MRKETYSSYIYKVLKQTHPDTGISQKSMSILNSFVNDIFERIATEASKLAAYNKKSTISAREIQTAVRLILPGELAKHAVSEGTRAVTKYSSSTQAQSRSAKAGLTFPVGRVHRLLRRGNYAQRIGSGAPVYLTAVLEYLAAEILELAGNAARDNKKTRIIPRHLQLAIRNDDELNKLLGNVTIAQGGVLPNI
B1: the dissociation constant (Kd) in assay [3] is ~151 nM.
